Source: the supplement of paper PMC9732359
± gives the uncertainty stated by the source.

Test: protein stability index of a GFP-peptide fusion (yeast GPS) (PSI 1-4); higher = more stable; sorted into four equal gates, so the index is relative within each strain
Procedure, shortened: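 Plasmids isolated from each sorting gate were PCR-amplified and Illumina-sequenced, and barcodes assigned the reads to strains. The gates, four of equal size, were set by GFP/Cherry fluorescence ratio on mid-log cultures in leucine-free medium. These cultures were yeast carrying a pooled library of tiled 17-residue yeast protein peptides fused downstream of GFP on a plasmid that also expresses Cherry. The protein stability index is the sum of every gate's read frequency times its gate number.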

| Sequence | protein stability index (doa10∆) | protein stability index (pdr5∆) | protein stability index (san1∆) | protein stability index (ubr1∆) |
| --- | --- | --- | --- | --- |
| LRLRISRKRNEEEDAKN [RPL31A] | 1.72 ± 0.17 | 2.39 ± 0.17 | 3.35 ± 0.16 | 2.32 ± 0.14 |
| LRLTEQKSPKIRDPLTQ [RPC82] | 1.6 ± 0.071 | 1.66 ± 0.041 | 1.91 ± 0.12 | 1.92 ± 0.045 |
| LRNKIAGYTTHLMKRIQ [RPS17A] | 2.44 ± 0.12 | 3.19 ± 0.13 | 2.31 ± 0.12 | 2.99 ± 0.076 |
| LRSRLQQQQQQQQQTSP [SNF5] | 2.58 ± 0.057 | 2.95 ± 0.058 | 2.76 ± 0.05 | 2.78 ± 0.049 |
| LRTVKEVQFGLFSPEEV [RPO21] | 2.76 ± 0.082 | 2.98 ± 0.081 | 3.02 ± 0.046 | 2.95 ± 0.043 |
| LRVDEVQGKNLLTNFHG [RPS1A] | 3.29 ± 0.067 | 3.42 ± 0.055 | 3.3 ± 0.047 | 3.26 ± 0.041 |
| LRYYKNIWLNNKIINWE [NUT1] | 3.56 ± 0.18 | 2.67 ± 0.087 | 2.2 ± 0.22 | 3.39 ± 0.16 |
| LSDNAKTLHSQMMSKGI [RPC34] | 3.19 ± 0.18 | 3.32 ± 0.098 | 3.26 ± 0.071 | 3.11 ± 0.056 |
| LSDVAFYVQDVYKDNLS [RPO31] | 1.8 ± 0.12 | 1.7 ± 0.12 |  | 1.22 ± 0.14 |
| LSGGGHDNHGNKLGNKR [CDC53] |  |  |  | 3.65 ± 0.23 |
| LSGLAQRKTNGASNGDD [BRN1] | 3.15 ± 0.17 | 3.29 ± 0.17 | 3.05 ± 0.077 | 3.6 ± 0.15 |
| LSINEKDFVTMAIEIIN [YCG1] | 2.44 ± 0.082 | 2.38 ± 0.077 | 2.14 ± 0.093 | 2.15 ± 0.053 |
| LSKMRDSVLQLASFEKT [RPO31] | 3.12 ± 0.13 | 2.97 ± 0.079 | 2.91 ± 0.11 | 3.01 ± 0.11 |
| LSLTAVPSFLRPDITMY [GRR1] | 2.17 ± 0.043 | 2.34 ± 0.045 | 2.18 ± 0.051 | 2.33 ± 0.043 |
| LSNPSNQNICTSVTRRS [GRR1] | 2.42 ± 0.083 | 2.49 ± 0.052 | 2.62 ± 0.055 | 2.53 ± 0.039 |
| LSRLSTASKIIVIDVDY [MED1] | 2.07 ± 0.058 | 2.3 ± 0.067 | 2.2 ± 0.051 | 2.41 ± 0.074 |
| LSRYVKWPEYVRVQRQK [RPL8A] |  | 2.67 ± 0.13 |  | 3.02 ± 0.22 |
| LSSYQKKIIKCDEHMGL [PRE5] | 2.19 ± 0.1 | 2.37 ± 0.13 | 2.19 ± 0.21 | 2.71 ± 0.22 |
| LSTLPAGKSLVSKSEPK [QCR2] | 2.95 ± 0.17 | 3.27 ± 0.1 | 2.68 ± 0.11 | 3.44 ± 0.14 |
| LTADARSMIEHARTAAV [PUP2] | 2.11 ± 0.13 | 2.87 ± 0.22 | 2.38 ± 0.16 | 2.71 ± 0.084 |
| LTEAVEDGPRPFKVFLD [RPL5] | 3.03 ± 0.071 | 3.11 ± 0.061 | 3.02 ± 0.052 | 3.23 ± 0.036 |
| LTEEELKTRYVGRQDPK [RPN11] |  | 3.36 ± 0.13 | 3.26 ± 0.14 | 3.56 ± 0.21 |
| LTFILGQLLSVKFLVYQ [YML031W/NDC1] | 1.53 ± 0.081 | 2.14 ± 0.12 | 1.51 ± 0.19 | 1.69 ± 0.097 |
| LTFVSVDEELGPSIYKT [SCL1] | 2.37 ± 0.065 | 1.94 ± 0.05 | 3.02 ± 0.054 | 2.99 ± 0.067 |
| LTGEAEIEQPVTTFVFT [FAS1] | 3.16 ± 0.083 | 2.98 ± 0.067 | 2.64 ± 0.096 | 2.4 ± 0.055 |
| LTHVDLIEKFLRYNPLE [RPB10] | 2.91 ± 0.14 | 3.29 ± 0.12 | 3.23 ± 0.071 | 3.12 ± 0.04 |
| LTIFDSVDESARIKDAF [YJL039C/NUP192] | 3.01 ± 0.11 | 3.07 ± 0.094 | 3.19 ± 0.051 | 3.02 ± 0.093 |

| Sequence | protein stability index (doa10∆) | protein stability index (pdr5∆) | protein stability index (san1∆) | protein stability index (ubr1∆) |
| --- | --- | --- | --- | --- |
| LTIVTCKQFPKLSCIQL [SRB8] | 1.99 ± 0.07 | 1.86 ± 0.058 | 1.46 ± 0.05 | 1.6 ± 0.03 |
| LTKKKNEEINKKSLEED [SEM1] |  | 3.31 ± 0.11 | 2.77 ± 0.18 |  |
| LTKYIRSKNLIFNGETL [GRR1] | 2.52 ± 0.086 | 2.43 ± 0.06 | 1.92 ± 0.078 | 1.91 ± 0.06 |
| LTNGVTEHVRQNAKLLA [RRP6] | 1.6 ± 0.041 | 1.88 ± 0.073 | 1.99 ± 0.23 | 1.59 ± 0.069 |
| LTVIEKLDSKKILPTDI [SRP68] | 2.71 ± 0.13 | 3 ± 0.12 | 2.95 ± 0.1 | 2.71 ± 0.061 |
| LTYLYEMKNIRGPYLVI [SNF2] | 1.22 ± 0.059 | 1.32 ± 0.04 | 1.27 ± 0.098 | 1.22 ± 0.042 |
| LVAKLKKVKSASKKSGG [SMC4] | 2.4 ± 0.074 | 2.62 ± 0.085 | 2.13 ± 0.12 | 2.45 ± 0.052 |
| LVDENTDYLYRRLHDEN [YCS4] | 2.68 ± 0.056 | 2.64 ± 0.048 | 2.68 ± 0.063 | 2.24 ± 0.034 |
| LVDNLNAEVVAGNIKCR [BRR2] | 1.79 ± 0.087 | 1.67 ± 0.07 | 1.72 ± 0.14 | 1.45 ± 0.075 |
| LVDVMTTQGGLTSVTRH [RPO21] | 2.14 ± 0.1 | 2.38 ± 0.072 | 2.1 ± 0.09 | 2.3 ± 0.069 |
| LVEARSLGHQTSLITAV [MTR3] | 2.69 ± 0.08 | 1.97 ± 0.067 | 2.79 ± 0.082 | 1.25 ± 0.064 |
| LVEPSKVGQFDQVLNLC [FAS1] | 2.35 ± 0.13 | 2.41 ± 0.09 | 2.78 ± 0.11 | 2.73 ± 0.16 |
| LVFCKHITSVPISAVLR [GRR1] | 1.61 ± 0.053 | 1.72 ± 0.05 | 1.92 ± 0.088 | 1.71 ± 0.042 |
| LVISLAATNETFENINS [IRR1] | 2.07 ± 0.11 | 2.4 ± 0.13 | 1.9 ± 0.095 |  |
| LVLADAFDIELSEFGIK [YCS4] | 2.92 ± 0.052 | 3.06 ± 0.057 | 2.9 ± 0.068 | 2.89 ± 0.046 |
| LVLLELVSSGDRFIELI [YML103C/NUP188] | 2.56 ± 0.1 | 2.08 ± 0.07 | 2.21 ± 0.068 | 2.3 ± 0.088 |
| LVLNKSSIDRGFGRCET [RET1] | 3.03 ± 0.28 | 3.11 ± 0.23 | 2.76 ± 0.12 |  |
| LVSLFEDTNLAAIHAKR [HHT1] | 2.9 ± 0.17 | 2.67 ± 0.17 | 2.56 ± 0.12 | 2.81 ± 0.063 |
| LVSSGDRFIELISDQLL [YML103C/NUP188] | 2.76 ± 0.099 | 2.5 ± 0.079 | 2.42 ± 0.057 | 3 ± 0.06 |
| LVTPKSFLFDVLKTLEY [NUT1] | 2.91 ± 0.18 | 2.98 ± 0.18 | 3.1 ± 0.15 | 2.92 ± 0.18 |
| LVTQHKAKYNTPKYRLV [RPL5] | 1.43 ± 0.052 | 1.94 ± 0.064 | 1.76 ± 0.095 | 1.87 ± 0.058 |
| LWDSKELEQLVEFNRKV [RPN3] | 2.97 ± 0.1 | 2.62 ± 0.093 | 3.2 ± 0.068 | 2.81 ± 0.084 |
| LWNQWLKLNTSLPSKLT [SRP68] | 1.45 ± 0.049 | 1.51 ± 0.052 | 1.36 ± 0.11 | 1.83 ± 0.037 |
| LWVFQAFTCFCIKKIME [SRB8] | 1.69 ± 0.044 | 1.52 ± 0.04 | 1.27 ± 0.073 | 1.48 ± 0.037 |
| LYDALEPSDLRSWTLTS [YGL100W/SEH1] | 2.82 ± 0.048 | 2.79 ± 0.046 | 2.78 ± 0.038 | 3.03 ± 0.049 |
| LYNDADVLTLENIQEGT [CDC53] | 3.18 ± 0.1 | 3.03 ± 0.087 | 3.17 ± 0.044 | 3.2 ± 0.046 |
| LYNKIWTEASSSGAGTV [ECM29] | 2.12 ± 0.065 | 1.76 ± 0.058 | 2.12 ± 0.081 | 2.93 ± 0.08 |
